T1: rat IL-17A (rat, UniProt Q61453 18-150, limits assumed)
T1 sequence (looked up): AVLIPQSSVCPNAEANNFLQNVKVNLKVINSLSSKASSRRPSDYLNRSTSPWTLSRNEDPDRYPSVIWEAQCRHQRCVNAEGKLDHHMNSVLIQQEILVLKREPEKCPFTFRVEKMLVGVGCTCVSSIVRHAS

T2: mouse IL-17A (mouse, UniProt Q62386 26-158, limits assumed)
T2 construct: Purified recombinant protein in SPR; also called MuIL-17A; murine IL-17A
T2 sequence (looked up): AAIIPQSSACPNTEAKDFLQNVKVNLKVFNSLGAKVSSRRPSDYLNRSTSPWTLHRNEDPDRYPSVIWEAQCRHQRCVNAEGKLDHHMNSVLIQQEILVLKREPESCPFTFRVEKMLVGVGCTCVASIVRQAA


How the values were obtained:
[1] = target: T3, human IL-17A (human, UniProt Q16552 24-155); test: cell-based or functional assay
T3 sequence (Q16552 24-155 limits assumed): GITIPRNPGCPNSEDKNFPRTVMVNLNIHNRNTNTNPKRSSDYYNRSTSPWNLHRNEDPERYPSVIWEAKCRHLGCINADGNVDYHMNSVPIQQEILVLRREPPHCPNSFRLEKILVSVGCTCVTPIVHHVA

[2] = target: human IL-17A/F (human, UniProt Q16552 24-155; Q96PD4 31-163); test: cell-based or functional assay
Target sequence in this assay (Q16552 24-155 limits assumed, chain 1 of 2): as the sequence (Q16552 24-155 limits assumed) above
Target sequence in this assay (Q96PD4 31-163 limits assumed, chain 2 of 2): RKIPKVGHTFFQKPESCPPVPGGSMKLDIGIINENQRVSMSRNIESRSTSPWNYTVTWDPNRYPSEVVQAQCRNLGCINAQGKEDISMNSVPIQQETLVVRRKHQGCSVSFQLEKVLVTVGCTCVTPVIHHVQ

[3] = target: cynomolgous monkey (cyno) IL-17A (cynomolgus monkey, UniProt A0A2K5TTB0 24-155); test: cell-based or functional assay
Sequence of cynomolgous monkey (cyno) IL-17A (A0A2K5TTB0 entry or part of it): as the sequence (Q16552 24-155 limits assumed) above, with T3A, P8S, N34S, I77V, N78K, P104R counted along it

[4] = target: T3, human IL-17A; test: ELISA, captured antibody, serially diluted biotin-IL-17 (Example 1.5.1)
Description: The following protocol is used to characterize the binding of IL-17 antibodies to human IL-17 by enzyme-linked immunosorbent assay (ELISA). […] 1. Coat ELISA plate with 50 μl per well of Goat anti Mouse IgG-Fc at 2 ug/ml, overnight at 4° C. […] 2. Wash plate 3×PBS/Tween. […] 3. Add 50 μl Mab diluted to 1 μg/ml in PBS/0.1% BSA to appropriate wells. Incubate 1 hr at room temperature (RT). […] 4. Wash plate 3× with PBS/Tween. […] 5. Add 50 μl of serial diluted biotin-IL17 (human IL-17, IL-17A/F, cyno IL-17) to appropriate wells. Incubate 1 hr at room temperature (RT). […] 6. Wash plate 3× with PBS/Tween. […] 7. […] Incubate 1 hr at RT. […] 8. Wash plate 3× with PBS/Tween. […] 9. […] 10. Stop reaction with 50 μl 2N H₂SO₄. […] Read absorbance at 450 nm.

[5] = target: T4, human IL-17A (human, UniProt Q16552 24-155); test: hIL17A ELISA
T4 construct: Recombinant; biotinylated in the ELISA; also called hIL-17; hIL17A
T4 sequence (Q16552 24-155): as the sequence (Q16552 24-155 limits assumed) above

[6] = target: T4, human IL-17A; test: cell-based or functional assay; remark: listed apart in the source
[7] = target: T5, cynomolgus monkey IL-17A (cynomolgus monkey, UniProt A0A2K5TTB0 24-155); test: cell-based or functional assay
T5 sequence (A0A2K5TTB0 entry or part of it): as the sequence (Q16552 24-155 limits assumed) above, with T3A, P8S, N34S, I77V, N78K, P104R counted along it

[8] = target: T1, rat IL-17A; test: cell-based or functional assay
[9] = target: T4, human IL-17A; test: SPR (Biacore 3000), antibody captured by anti-Fc, antigen in solution;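 note: purified recombinant IL-17 antigens flowed over captured antibodies in HBS-EP buffer, global Langmuir one-to-one fit of association and dissociation phases, KD derived from koff over kon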
Description: (§1) The binding of antibodies to purified recombinant human, cyno, rat, mouse, rabbit IL-17 and human IL-17A/F were determined by surface plasmon resonance-based measurements with a Biacore® 3000 instrument (Biacore® AB, Uppsala, Sweden) using running HBS-EP (10 mM HEPES [pH 7.4], 150 mM NaCl, 3 mM EDTA, and 0.005% surfactant P20) at 25° C. […] Approximately 5000 RU of goat anti-mouse or anti-human IgG (Fcγ) fragment specific polyclonal antibody (Pierce Biotechnology Inc, Rockford, Ill.) diluted in 10 mM sodium acetate (pH 4.5) was directly immobilized across a CM5 research grade biosensor chip using a standard amine coupling kit according to manufacturer's instructions and procedures at 25 μg/ml. Unreacted moieties on the biosensor surface were blocked with ethanolamine. Modified carboxymethyl dextran surface in flowcell 2 and 4 was used as a reaction surface. Unmodified carboxymethyl dextran without goat anti-mouse or anti-human IgG in flow cell 1 and 3 was used as the reference surface. For kinetic analysis, rate equations derived from the 1:1 Langmuir binding model were fitted simultaneously to association and dissociation phases of all eight injections (using global fit analysis) with the use of Biaevaluation 4.0.1 software. Purified antibodies were diluted in HEPES-buffered saline for capture across goat anti-mouse or anti-human IgG specific reaction surfaces. Antibodies to be captured as a ligand (25 μg/ml) were injected over reaction matrices at a flow rate of 5 μl/min. The association and dissociation rate constants, kon (unit M-1s-1) and koff (unit s-1) were determined under a continuous flow rate of 25 μl/min. Rate constants were derived by making kinetic binding measurements at ten different antigen concentrations ranging from 10 nM to 200 nM. The equilibrium dissociation constant (unit M) of the reaction between antibodies and recombinant purified IL-17 antigens was then calculated from the kinetic rate constants by the following formula: KD=koff/kon. Binding was recorded as a function of time and kinetic rate constants are calculated. In this assay, on-rates as fast as 10⁶ M⁻¹ s⁻¹ and off-rates as slow as 10⁻⁶ s⁻¹ can be measured.

[10] = target: T6, human IL-17A/F (human, UniProt Q16552 24-155; Q96PD4 31-163); test: as above
T6 construct: Recombinant; biotinylated in the ELISA; also called hIL-17A/F; HuIL-17A/F
T6 sequence (Q16552 24-155, chain 1 of 2): as the sequence (Q16552 24-155 limits assumed) above
T6 sequence (Q96PD4 31-163, chain 2 of 2): as the sequence (Q96PD4 31-163 limits assumed, chain 2 of 2) above
Description: as §1

[11] = target: T5, cynomolgus monkey IL-17A; test: as above
Description: as §1

[12] = target: T1, rat IL-17A; test: as above
Description: as §1

[13] = target: T2, mouse IL-17A; test: as above
Description: as §1

Row | Binder | Potency (nM), IL-17-driven IL-6 production in HS27 cells [1] [nM] | Potency (nM), IL-17-driven IL-6 production in HS27 cells [2] [nM] | Potency (nM), IL-17-driven IL-6 production in HS27 cells [3] [nM] | EC50 [4] [nM] | EC50 [5] [nM] | Potency (pM), IL-17-driven IL-6 production in HS27 cells [6] [pM] | Potency (pM), IL-17-driven IL-6 production in HS27 cells [7] [pM] | Potency (pM), IL-17 and TNF-alpha-driven IL-6 production in NIH3T3 cells [8] [pM] | Kd [9] [nM] | koff [9] [s⁻¹] | kon [9] [M⁻¹ s⁻¹] | Kd [10] [nM] | koff [10] [s⁻¹] | kon [10] [M⁻¹ s⁻¹] | Kd [11] [nM] | koff [11] [s⁻¹] | kon [11] [M⁻¹ s⁻¹] | Kd [12] [nM] | koff [12] [s⁻¹] | kon [12] [M⁻¹ s⁻¹] | other results
1 | IL17-TN-L7-G9 (antibody, V domains shown, Fully human monoclonal antibody from mRNA display) VH: EVQLLESGGGVVQPGRSLRLSCAASGFIFSNYGMHWVRQAPGKGLEWVAVISYDGSNKYYADSVKGRFTISRDNSKNTLYLEMNSLRPEDTAVYYCAKVGASGDYYYSYGLDVWGQGTTVTVSS VL: QSGLTQPPSASGTPGQTVSISCSGSNSNIGSHSVNWYQQVPGAAPKLLMYGIGQRPSGVPDRFSVSQSGTSASLAISGLQSEDEADYYCATWDDSLGGYVFGSGTKVTVLG | 0.8 | 2 | 12 | 0.165 | – | – | – | – | – | – | – | – | – | – | – | – | – | – | – | – | –
2 | IL17-TN-L7-A7 (antibody, V domains shown, Fully human monoclonal antibody from mRNA display) VH: EVQLLESGGGVVQPGTFLRLSCAATGFTFSAYGMHWVRQAPGRGLEWVAVTSYDGSNKYYADSVKGRFTISRDNSKNTLYLEMNSLRPEDTAVYYCAKVGASGDYYYSYGLDVWGQGTMVTVSS VL: QSGLTQPPSASGTPGQTVSISCSGSNSNIGSHSVNWYQQVPGAAPKLLMYGIGQRPSGVPDRFSVSQSGTSASLAISGLQSEDEADYYCATWDDSLGGYVFGSGTKVTVLG | 1.8 | 1.8 | 12 | 0.131 | – | – | – | – | – | – | – | – | – | – | – | – | – | – | – | – | –
3 | IL17-h5C5.3 (antibody, V domains shown, IgG; constant regions not specified) VH: EVQLVQSGAEVKKPGASVKVSCKASGYTFTDYEFHWVRQAPGQGLEWIGVIHPGNGGTAYNQNFRDRATLTADKSTSTAYMELSSLRSEDTAVYYCTRFLTYEGYFDYWGQGTLVTVSS VL: NIVMTQTPKFLLVSPGDRVTITCKASQSVSIDVGWFQQKPGQSPKLLIYHASNRYTGVPDRFTGSGYGTDFTFTVNTVQAEDLAVYFCQQDYSSPYTFGGGTKLELKR | – | – | – | – | 1.37 | 5 | 12 | 2520 | – | – | – | – | – | – | – | – | – | – | – | – | –
4 | IL17-h5C5.9 (antibody, V domains shown, IgG; constant regions not specified; also called h5C5.9 (VH.1b-Vk.1a)) VH: EVQLVQSGAEVKKPGASVKVSCKASGYTFTDYEFHWVRQAPGQGLEWIGVIHPGNGGTAYNQNFRDRATLTADKSTSTAYMELSSLRSEDTAVYYCTRFLTYEGYFDYWGQGTLVTVSS VL: DIQMTQSPSSLSASVGDRVTITCKASQSVSIDVGWFQQKPGKSPKLLIYHASNRYTGVPSRFSGSGSGTDFTFTISSLQPEDFATYFCQQDYSSPYTFGQGTKLEIKR | – | – | – | – | 0.03 | 14 | 19 | 5680 | 0.44 | 0.000449 | 1.02e+06 | 1.21 | 0.00115 | 950000 | 0.228 | 0.000239 | 1.05e+06 | 8.48 | 0.00958 | 1.13e+06 | Kd [13]: 2.09 nM; koff [13]: 0.000582 s⁻¹; kon [13]: 279000 M⁻¹ s⁻¹
5 | IL17-h5C5.8 (antibody, V domains shown, IgG; constant regions not specified; also called h5C5.8 (VH.1-Vk.1a)) VH: EVQLVQSGAEVKKPGASVKVSCKASGYTFTDYEFHWVRQAPGQGLEWMGVIHPGNGGTAYNQNFRDRVTITADKSTSTAYMELSSLRSEDTAVYYCARFLTYEGYFDYWGQGTLVTVSS VL: DIQMTQSPSSLSASVGDRVTITCKASQSVSIDVGWFQQKPGKSPKLLIYHASNRYTGVPSRFSGSGSGTDFTFTISSLQPEDFATYFCQQDYSSPYTFGQGTKLEIKR | – | – | – | – | 0.07 | 17 | 20 | 13100 | 0.393 | 0.000444 | 1.13e+06 | 1.28 | 0.00121 | 948000 | 0.217 | 0.000226 | 1.04e+06 | 14.2 | 0.011 | 774000 | Kd [13]: 1.86 nM; koff [13]: 0.000531 s⁻¹; kon [13]: 285000 M⁻¹ s⁻¹

Source: patent publication US20140348834A1 (published 2014)
